Target: Leukemia inhibitory factor (LIF), un-glycosylated recombinant protein (human, UniProt P15018 23-202)
Assay: SPR

Chain of Leukemia inhibitory factor (LIF), un-glycosylated recombinant protein (P15018 23-202): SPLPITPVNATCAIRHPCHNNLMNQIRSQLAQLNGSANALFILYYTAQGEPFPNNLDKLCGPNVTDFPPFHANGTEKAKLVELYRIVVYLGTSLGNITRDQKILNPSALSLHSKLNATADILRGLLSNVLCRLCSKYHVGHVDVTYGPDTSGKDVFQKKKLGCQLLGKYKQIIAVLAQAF

B1: LIF receptor LIFR (receptor)
chain: QKKGAPHDLKCVTNNLQVWNCSWKAPSGTGRGTDYEVCIENRSRSCYQLEKTSIKIPALSHGDYEITINSLHDFGSSTSKFTLNEQNVSLIPDTPEILNLSADFSTSTLYLKWNDRGSVFPHRSNVIWEIKVLRKESMELVKLVTHNTTLNGKDTLHHWSWASDMPLECAIHFVEIRCYIDNLHFSGLEEWSDWSPVKNISWIPDSQTKVFPQDKVILVGSDITFCCVSQEKVLSALIGHTNCPLIHLDGENVAIKIRNISVSASSGTNVVFTTEDNIFGTVIFAGYPPDTPQQLNCETHDLKEIICSWNPGRVTALVGPRATSYTLVESFSGKYVRLKRAEAPTNESYQLLFQMLPNQEIYNFTLNAHNPLGRSQSTILVNITEKVYPHTPTSFKVKDINSTAVKLSWHLPGNFAKINFLCEIEIKKSNSVQEQRNVTIKGVENSSYLVALDKLNPYTLYTFRIRCSTETFWKWSKWSNKKQHLTTEASPSKGPDTWREWSSDGKNLIIYWKPLPINEANGKILSYNVSCSSDEETQSLSEIPDPQHKAEIRLDKNDYIISVVAKNSVGSSPPSKIASMEIPNDDLKIEQVVGMGKGILLTWHYDPNMTCDYVIKWCNSSRSEPCLMDWRKVPSNSTETVIESDEFRPGIRYNFFLYGCRNQGYQLLRSMIGYIEELAPIVAPNFTVEDTSADSILVKWEDIPVEELRGFLRGYLFYFGKGERDTSKMRVLESGRSDIKVKNITDISQKTLRIADLQGKTSYHLVLRAYTDGGVGPEKSMYVVTKENS
Kd: 6.31 µM

— PMC12103653 (2025)
